Laboratory results as given in article PMC8548718 (Frontiers in Molecular Biosciences, 2021).

Molecular target: T1, PD1-Fc (UniProt Q15116)
T1 construct: PD-1 (programmed cell death protein 1); most likely the extracellular domain of human PD-1 on a human IgG Fc
Assay: BLI; BLItz system; biotinylated 102c3 nanobody immobilised on SA2 biosensors, dipped in serial dilutions of PD1-Fc
Conditions: both partners purified

T1 sequence (Q15116 25-170): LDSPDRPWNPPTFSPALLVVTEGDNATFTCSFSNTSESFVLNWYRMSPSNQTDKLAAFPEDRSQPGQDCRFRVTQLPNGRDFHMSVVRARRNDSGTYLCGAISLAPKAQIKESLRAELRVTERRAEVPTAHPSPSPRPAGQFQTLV

B1: nanobody 102c3 (anti-PD1 single-domain antibody, VHH), biotinylated (VHH)
VHH: EVQLVESGGGLVQAGKSLRLSCAASGSIFSIHAMGWFRQAPGKEREFVAAITWSGGITYYEDSVKGRFTISRDNAKNTVYLQMNSLKPEDTAIYYCAADRAESSWYDYWGQGTQVTVSS
notes: the whole synthesised fragment translates to MGSR...PQPDPSP; also called 102c3 nanobody; 102c3 VHH; source: E. coli BL21DE3-BirA, periplasm extract, purified (HIS Mag Sepharose Excel, dialysis against PBS); not shown: biotinylation signal, C-terminal, kept
- binding result: binds
